In patent US20250092108A1 (Xencor, published 2025):

Molecular target: T1, IL-2 receptors (high-affinity IL-2Rαβγ or intermediate-affinity IL-2Rβγ) on PBMC lymphocytes (UniProt P01589 22-272; P14784 27-551; P31785 23-369, limits assumed)
T1 sequence (looked up) 1: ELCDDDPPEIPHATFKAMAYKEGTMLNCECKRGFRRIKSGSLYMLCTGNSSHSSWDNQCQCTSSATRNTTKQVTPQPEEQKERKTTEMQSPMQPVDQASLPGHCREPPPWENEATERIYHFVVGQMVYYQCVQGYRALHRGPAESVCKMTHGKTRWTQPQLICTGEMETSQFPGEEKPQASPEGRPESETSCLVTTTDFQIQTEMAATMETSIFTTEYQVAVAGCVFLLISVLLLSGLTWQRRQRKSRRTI
T1 sequence (looked up) 2: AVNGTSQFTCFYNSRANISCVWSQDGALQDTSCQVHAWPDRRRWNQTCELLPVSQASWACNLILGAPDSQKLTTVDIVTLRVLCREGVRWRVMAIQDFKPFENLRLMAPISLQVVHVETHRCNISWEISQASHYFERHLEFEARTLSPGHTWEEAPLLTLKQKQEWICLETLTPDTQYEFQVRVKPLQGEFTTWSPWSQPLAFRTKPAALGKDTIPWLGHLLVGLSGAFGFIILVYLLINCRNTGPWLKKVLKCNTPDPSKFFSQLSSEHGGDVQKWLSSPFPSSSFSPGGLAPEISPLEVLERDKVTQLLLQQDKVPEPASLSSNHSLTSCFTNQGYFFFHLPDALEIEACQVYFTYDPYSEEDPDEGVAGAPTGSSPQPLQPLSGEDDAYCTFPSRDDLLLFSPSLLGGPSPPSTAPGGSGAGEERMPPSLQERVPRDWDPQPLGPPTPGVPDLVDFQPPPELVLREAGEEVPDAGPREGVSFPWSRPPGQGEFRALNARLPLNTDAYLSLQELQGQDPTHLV
T1 sequence (looked up) 3: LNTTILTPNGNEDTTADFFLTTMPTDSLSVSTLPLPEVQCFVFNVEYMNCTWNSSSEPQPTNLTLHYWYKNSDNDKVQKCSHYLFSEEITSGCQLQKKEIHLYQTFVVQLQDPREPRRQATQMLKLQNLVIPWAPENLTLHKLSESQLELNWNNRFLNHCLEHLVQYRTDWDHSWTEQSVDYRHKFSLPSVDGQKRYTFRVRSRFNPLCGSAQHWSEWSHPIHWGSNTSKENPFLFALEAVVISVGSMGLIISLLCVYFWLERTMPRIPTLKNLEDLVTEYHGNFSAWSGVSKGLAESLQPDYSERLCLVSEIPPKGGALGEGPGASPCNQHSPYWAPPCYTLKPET
Assay: cell-based or functional assay

Binder | EC50, induction of STAT5 phosphorylation (in vitro potency) [nM]
XENP26105 (Fc fusion) chain 1: EPKSSDKTHTCPPCPAPPVAGPSVFLFPPKPKDTLMISRTPEVTCVVVDVKHEDPEVKFNWYVDGVEVHNAKTKPREEEYNSTYRVVSVLTVLHQDWLNGKEYKCKVSNKALPAPIEKTISKAKGQPREPQVYTLPPSREEMTKNQVSLTCDVSGFYPSDIAVEWESDGQPENNYKTTPPVLDSDGSFFLYSKLTVDKSRWEQGDVFSCSVMHEALHNHYTQKSLSLSPGK chain 2: APASSSTKKTQLQLEHLLLNLQMILNGINNYKNPKLRRMLTFKFYMPKKATELKHLQCLEEELKPLEEVLNLAQSKNFHLRPRDLISNINVIVLELKGSETTFMCEYADETATIVEFLNRWITFSQSIISTLTEPKSSDKTHTCPPCPAPPVAGPSVFLFPPKPKDTLMISRTPEVTCVVVDVKHEDPEVKFNWYVDGVEVHNAKTKPREEQYNSTYRVVSVLTVLHQDWLNGKEYKCKVSNKALPAPIEKTISKAKGQPREPQVYTLPPSREQMTKNQVKLTCLVKGFYPSDIAVEWESNGQPENNYKTTPPVLDSDGSFFLYSKLTVDKSRWQQGNVFSCSVMHEALHNHYTQKSLSLSPGK | 1
XENP26109 (Fc fusion) chain 1: EPKSSDKTHTCPPCPAPPVAGPSVFLFPPKPKDTLMISRTPEVTCVVVDVKHEDPEVKFNWYVDGVEVHNAKTKPREEEYNSTYRVVSVLTVLHQDWLNGKEYKCKVSNKALPAPIEKTISKAKGQPREPQVYTLPPSREEMTKNQVSLTCDVSGFYPSDIAVEWESDGQPENNYKTTPPVLDSDGSFFLYSKLTVDKSRWEQGDVFSCSVMHEALHNHYTQKSLSLSPGK chain 2: APASSSTKKTQLQLEHLLLNLQMILNGINNYKNPKLTRMLTFKFYMPKKATELKHLQCLEEELKPLEEVLKLAQSKNFHLRPRDLISNINVIVLELKGSETTFMCEYADETATIVEFLNRWITFSQSIISTLTEPKSSDKTHTCPPCPAPPVAGPSVFLFPPKPKDTLMISRTPEVTCVVVDVKHEDPEVKFNWYVDGVEVHNAKTKPREEQYNSTYRVVSVLTVLHQDWLNGKEYKCKVSNKALPAPIEKTISKAKGQPREPQVYTLPPSREQMTKNQVKLTCLVKGFYPSDIAVEWESNGQPENNYKTTPPVLDSDGSFFLYSKLTVDKSRWQQGNVFSCSVMHEALHNHYTQKSLSLSPGK | 5
